Measured values taken from the Human Domainome abundance scans (Beltran et al. 2025).
± gives the uncertainty stated by the source.

B1: Integrator complex subunit 12, residues 155 to 213; numbered along this chain, Q96CB8 (parent)
chain: AMEMGLACVVCRQMMVASGNQLVECQECHNLYHRDCHKPQVTDKEANDPRLVWYCARCT

Variants of: B1
Test: abundance fitness (aPCA) (normalised: wild type 0, dead -1); higher = more abundant; growth selection in yeast, the domain comes from the species named
Conditions: Homo sapiens

AMEMGLACVVCRQMMVASGNQLVECQECHNLYHRDCHKPQVTDKEANDPRLVKYCARCT [W53K] and AMEMGLACVVCRQMMVASGNQLVECQECHNLYHRDCHKPQVTDKEANDPRLVNYCARCT [W53N] are within error of each other in abundance fitness: -0.146 ± 0.067 for the first, -0.112 ± 0.094 for the second.

AMEMGLACVVCRQMMVASGNQLVECQECHNLYHRDCHKPQVTDKEANDPRLVMYCARCT [W53M] and AMEMGLACVVCRQMMVASGNQLVECQECHNLYHRDCHKPQVTDKEANDPRLVHYCARCT [W53H] are within error of each other in abundance fitness: -0.252 ± 0.077 for the first, -0.266 ± 0.097 for the second.

AMEMGLACVVCRQMMVASGNQLVECQECHNLYHRDCHKPQVTDKEANDPRLVQYCARCT [W53Q] and AMEMGLACVVCRQMMVASGNQLVECQECHNLYHRDCHKPQVTDKEANDPRLVGYCARCT [W53G] are within error of each other in abundance fitness: -0.205 ± 0.061 for the first, -0.27 ± 0.052 for the second.

Going from AMEMGLACVVCRQMMVASGNQLVECQECHNLYHRDCHKPQVTDKEANDPRLVPYCARCT [W53P] to AMEMGLACVVCRQMMVASGNQLVECQECHNLYHRDCHKPQVTDKEANDPRLVAYCARCT [W53A], the abundance fitness rises from -0.302 ± 0.058 to -0.115 ± 0.064.

AMEMGLACVVCRQMMVASGNQLVECQECHNLYHRDCHKPQVTDKEANDPRLVDYCARCT [W53D] and AMEMGLACVVCRQMMVASGNQLVECQECHNLYHRDCHKPQVTDKEANDPRLVLYCARCT [W53L] are within error of each other in abundance fitness: -0.104 ± 0.14 for the first, -0.283 ± 0.049 for the second.

Compared with AMEMGLACVVCRQMMVASGNQLVECQECHNLYHRDCHKPQVTDKEANDPRLVCYCARCT [W53C], AMEMGLACVVCRQMMVASGNQLVECQECHNLYHRDCHKPQVTDKEANDPRLDWYCARCT [V52D] is higher in abundance fitness: -0.453 ± 0.092 for the first, 0.025 ± 0.061 for the second.

Going from AMEMGLACVVCRQMMVASGNQLVECQECHNLYHRDCHKPQVTDKEANDPRLKWYCARCT [V52K] to AMEMGLACVVCRQMMVASGNQLVECQECHNLYHRDCHKPQVTDKEANDPRLIWYCARCT [V52I], the abundance fitness falls from 0.103 ± 0.065 to -0.095 ± 0.057.

Compared with AMEMGLACVVCRQMMVASGNQLVECQECHNLYHRDCHKPQVTDKEANDPRLGWYCARCT [V52G], AMEMGLACVVCRQMMVASGNQLVECQECHNLYHRDCHKPQVTDKEANDPRLYWYCARCT [V52Y] is lower in abundance fitness: 0.023 ± 0.051 for the first, -0.284 ± 0.087 for the second.

Going from AMEMGLACVVCRQMMVASGNQLVECQECHNLYHRDCHKPQVTDKEANDPRLPWYCARCT [V52P] to AMEMGLACVVCRQMMVASGNQLVECQECHNLYHRDCHKPQVTDKEANDPRLFWYCARCT [V52F], the abundance fitness falls from 0.019 ± 0.052 to -0.126 ± 0.064.

AMEMGLACVVCRQMMVASGNQLVECQECHNLYHRDCHKPQVTDKEANDPRLAWYCARCT [V52A] and AMEMGLACVVCRQMMVASGNQLVECQECHNLYHRDCHKPQVTDKEANDPRLTWYCARCT [V52T] are within error of each other in abundance fitness: 0.036 ± 0.051 for the first, 0.034 ± 0.053 for the second.

Compared with AMEMGLACVVCRQMMVASGNQLVECQECHNLYHRDCHKPQVTDKEANDPRLLWYCARCT [V52L], AMEMGLACVVCRQMMVASGNQLVECQECHNLYHRDCHKPQVTDKEANDPRLWWYCARCT [V52W] is lower in abundance fitness: -0.018 ± 0.044 for the first, -0.36 ± 0.092 for the second.

AMEMGLACVVCRQMMVASGNQLVECQECHNLYHRDCHKPQVTDKEANDPRLCWYCARCT [V52C] and AMEMGLACVVCRQMMVASGNQLVECQECHNLYHRDCHKPQVTDKEANDPRLNWYCARCT [V52N] are within error of each other in abundance fitness: -0.009 ± 0.092 for the first, -0.012 ± 0.08 for the second.

AMEMGLACVVCRQMMVASGNQLVECQECHNLYHRDCHKPQVTDKEANDPRLMWYCARCT [V52M] and AMEMGLACVVCRQMMVASGNQLVECQECHNLYHRDCHKPQVTDKEANDPRLRWYCARCT [V52R] are within error of each other in abundance fitness: -0.033 ± 0.055 for the first, -0.032 ± 0.046 for the second.

AMEMGLACVVCRQMMVASGNQLVECQECHNLYHRDCHKPQVTDKEANDPRLHWYCARCT [V52H] and AMEMGLACVVCRQMMVASGNQLVECQECHNLYHRDCHKPQVTDKEANDPALVWYCARCT [R50A] are within error of each other in abundance fitness: -0.036 ± 0.076 for the first, 0.014 ± 0.048 for the second.

First: AMEMGLACVVCRQMMVASGNQLVECQECHNLYHRDCHKPQVTDKEANDPILVWYCARCT [R50I]
Second: AMEMGLACVVCRQMMVASGNQLVECQECHNLYHRDCHKPQVTDKEANDPLLVWYCARCT [R50L]
The abundance fitness of the first is lower: -0.242 ± 0.089 for the first, -0.068 ± 0.045 for the second.

AMEMGLACVVCRQMMVASGNQLVECQECHNLYHRDCHKPQVTDKEANDPTLVWYCARCT [R50T] and AMEMGLACVVCRQMMVASGNQLVECQECHNLYHRDCHKPQVTDKEANDPSLVWYCARCT [R50S] are within error of each other in abundance fitness: 0.041 ± 0.056 for the first, 0.057 ± 0.059 for the second.

AMEMGLACVVCRQMMVASGNQLVECQECHNLYHRDCHKPQVTDKEANDPCLVWYCARCT [R50C] and AMEMGLACVVCRQMMVASGNQLVECQECHNLYHRDCHKPQVTDKEANDPGLVWYCARCT [R50G] are within error of each other in abundance fitness: -0.104 ± 0.12 for the first, 0.014 ± 0.049 for the second.

Compared with AMEMGLACVVCRQMMVASGNQLVECQECHNLYHRDCHKPQVTDKEANDPKLVWYCARCT [R50K], AMEMGLACVVCRQMMVASGNQLVECQECHNLYHRDCHKPQVTDKEANDPVLVWYCARCT [R50V] is lower in abundance fitness: 0.025 ± 0.073 for the first, -0.177 ± 0.067 for the second.

AMEMGLACVVCRQMMVASGNQLVECQECHNLYHRDCHKPQVTDKEANDPQLVWYCARCT [R50Q] and AMEMGLACVVCRQMMVASGNQLVECQECHNLYHRDCHKPQVTDKEANDPDLVWYCARCT [R50D] are within error of each other in abundance fitness: -0.059 ± 0.061 for the first, -0.017 ± 0.091 for the second.

Compared with AMEMGLACVVCRQMMVASGNQLVECQECHNLYHRDCHKPQVTDKEANDPNLVWYCARCT [R50N], AMEMGLACVVCRQMMVASGNQLVECQECHNLYHRDCHKPQVTDKEANDPFLVWYCARCT [R50F] is lower in abundance fitness: 0.15 ± 0.12 for the first, -0.126 ± 0.084 for the second.

AMEMGLACVVCRQMMVASGNQLVECQECHNLYHRDCHKPQVTDKEANDPWLVWYCARCT [R50W] and AMEMGLACVVCRQMMVASGNQLVECQECHNLYHRDCHKPQVTDKEANDPHLVWYCARCT [R50H] are within error of each other in abundance fitness: -0.206 ± 0.093 for the first, -0.06 ± 0.11 for the second.

AMEMGLACVVCRQMMVASGNQLVECQECHNLYHRDCHKPQVTDKEANDPPLVWYCARCT [R50P] and AMEMGLACVVCRQMMVASGNQLVECQECHNLYHRDCHKPQVTDKEANDPMLVWYCARCT [R50M] are within error of each other in abundance fitness: -0.033 ± 0.059 for the first, -0.028 ± 0.06 for the second.

Variant AMEMGLACVVCRQMMVASGNQLVECQECHNLYHRDCHKPQVTDKEANDPELVWYCARCT [R50E] has an abundance fitness of 0.02 ± 0.056.
